# Measurements: patent publication US7829082B2, “Catheter composition and uses thereof” (Genentech, Inc., priority 2001, dated 2010)
# Where “and” joins values, the source holds several entries; their conditions need not be identical. Equal values may be shown once.
# B1: Tenecteplase: a t-PA variant designated T103N, N117Q, K296A, H297A,R298A,R299A available as TNKASE™ brand from Genentech, Inc.; diluted in 0.9% NaCl (protein, UniProt P00750 36-562, looked up, variant T103N N117Q K296A H297A R298A R299A)
# Tissue-type plasminogen …: SYQVICRDEKTQMIYQQHQSWLRPVLRSNRVEYCWCNSGRAQCHSVPVKSCSEPRCFNGGTCQQALYFSDFVCQCPEGFAGKCCEIDTRATCYEDQGISYRGNWSTAESGAECTNWQSSALAQKPYSGRRPDAIRLGLGNHNYCRNPDRDSKPWCYVFKAGKYSSEFCSTPACSEGNSDCYFGNGSAYRGTHSLTESGASCLPWNSMILIGKVYTAQNPSAQALGLGKHNYCRNPDGDAKPWCHVLKNRRLTWEYCDVPSCSTCGLRQYSQPQFRIKGGLFADIASHPWQAAIFAAAAASPGERFLCGGILISSCWILSAAHCFQERFPPHHLTVILGRTYRVVPGEEEQKFEVEKYIVHKEFDDDTYDNDIALLQLKSDSSRCAQESSVVRTVCLPPADLQLPDWTECELSGYGKHEALSPFYSERLKEAHVRLYPSSRCTSQHLLNRTVTDNMLCAGDTRSGGPQANLHDACQGDSGGPLVCLNDGRMTLVGIISWGLGCGQKDVPGVYTKVTNYLDWIRDNMRP
# How the values were obtained:
# [1] = target: T1, in vitro clot consisting of plasminogen and fibrin (Homo sapiens, UniProt P00747+P02671+P02675+P02679); assay: Clot lysis assay of tenecteplase; type: biochemical; details: for overall percent specific activity of the recovered protein: over 24 hours at ambient conditions; for Clot lysis (+cent): after centrifugation; for Clot lysis (−cent): before centrifugation
# T1 construct: Plasminogen kept frozen at or below −60° C. until use; purchased Biocell (fibrinogen); Calbiochem (thrombin)
# Source text: The assay works as follows: Reagents are substances added to a solution of another substance to participate in a chemical reaction. In this case, contents of boat 1 will react with contents of boat 2 to form a standardized clot. Thrombin (boat 2), when mixed with plasminogen and fibrinogen (boat 1), causes the conversion of fibrinogen to fibrin and forms a standardized in vitro clot consisting of plasminogen and fibrin. A test sample of t-PA is then exposed to the clot. T-PA causes the conversion of plasminogen to plasmin, and plasmin then breaks apart the fibrin strands. As the clot breaks apart, there is a change in the absorbance (light) characteristics. The absorbance is plotted versus time.
# In such test, thrombin and fibrinogen are mixed together to produce fibrin; plasminogen and tenecteplase are mixed together to produce plasmin; and together the fibrin and plasmin lyse the clot. The test measures the effectiveness of tenecteplase to act with plasminogen to form plasmin and thus lyse the clot.
# (§1) Tenecteplase (TNKASE™ variant of t-PA), obtained from Genentech, Inc. (e.g., U.S. Pat. No. 5,612,029) (50 mg/vial) was reconstituted to 5 mg/mL with 10 mL of SWFI. Using a 3 & 5 cc syringe and 22 G needle, 1, 2, and 5 mL of normal saline (NS) was removed from separate IV bags (500 mL NS, Baxter), in duplicates. The same volume was replaced with the reconstituted drug product to give a final tenecteplase concentration inside the bags of 0.01, 0.02, and 0.05 mg/mL. The bags were then mixed gently by inversions. A 10-mL aliquot of the diluted tenecteplase solution was sampled via the IV port with a 10-cc syringe and dispensed into two 5-cc clean clear glass vials (6 mL in one and the remaining in the other). The IV bags containing the diluted tenecteplase were placed on a bench top under normal fluorescent light at ambient conditions for 24 hours. Additional aliquots (10 mL each) from these IV bags were sampled after 8 and 24 hours of storage.
# All the aliquots of tenecteplase were subjected to the clot lysis assay described above to determine the in vitro bioactivity of tenecteplase in these aliquots. The samples were diluted to two or three different concentrations within assay range (200-500 ng/mL) with the diluent. Tenecteplase was used as an internal reference. All values obtained were normalized to the tenecteplase reference material. The bioactivity was assayed by clot lysis before and after centrifugation.
# [2] = pH of tenecteplase dilutions; type: physicochemical; details: for observed pH: over 24 hours of storage at ambient conditions
# Method: as §1
# The pH determination was performed using a RADIOMETER PHM 93™ pH meter and a microelectrode (MI-410™, Microelectrode, Inc.). The pH meter was standardized with pH 4.01 and 7.00 buffer standards prior to measurement at ambient conditions.
# [3] = Tenecteplase concentration by RP-HPLC before and after centrifugation; type: physicochemical; details: for Conc. (+cent) by RP-HPLC: after centrifugation; for Conc. (−cent) by RP-HPLC: before centrifugation
# Method: as §1
# The clot lysis activity and protein concentrations (determined by RP-HPLC) were performed before and after centrifugation of each sample aliquot. This was to ensure that any precipitation that was not visible to the naked eye was removed prior to assay for more accurate interpretation of the results. […] At 0.01 mg/mL, the percent change in concentration was 57% immediately after dilution and increased to 71% after 24 hours. […] This observation can be explained, without being limited to any one theory, by a more pronounced protein adsorption at a lower concentration that usually occurs instantly and saturates with time.
# [4] = targeted conc. 0.01 mg/mL in 0.9% NaCl IV bag, T = 0
# [5] = targeted conc. 0.01 mg/mL in 0.9% NaCl IV bag, T = 8 hours ambient
# [6] = targeted conc. 0.01 mg/mL in 0.9% NaCl IV bag, T = 24 hours ambient
# [7] = targeted conc. 0.02 mg/mL in 0.9% NaCl IV bag, T = 0
# [8] = targeted conc. 0.02 mg/mL in 0.9% NaCl IV bag, T = 8 hours ambient
# [9] = targeted conc. 0.02 mg/mL in 0.9% NaCl IV bag, T = 24 hours ambient
# [10] = targeted conc. 0.05 mg/mL in 0.9% NaCl IV bag, T = 0
# [11] = targeted conc. 0.05 mg/mL in 0.9% NaCl IV bag, T = 8 hours ambient
# [12] = targeted conc. 0.05 mg/mL in 0.9% NaCl IV bag, T = 24 hours ambient
# T1 sequence (P00747 20-810 limits assumed): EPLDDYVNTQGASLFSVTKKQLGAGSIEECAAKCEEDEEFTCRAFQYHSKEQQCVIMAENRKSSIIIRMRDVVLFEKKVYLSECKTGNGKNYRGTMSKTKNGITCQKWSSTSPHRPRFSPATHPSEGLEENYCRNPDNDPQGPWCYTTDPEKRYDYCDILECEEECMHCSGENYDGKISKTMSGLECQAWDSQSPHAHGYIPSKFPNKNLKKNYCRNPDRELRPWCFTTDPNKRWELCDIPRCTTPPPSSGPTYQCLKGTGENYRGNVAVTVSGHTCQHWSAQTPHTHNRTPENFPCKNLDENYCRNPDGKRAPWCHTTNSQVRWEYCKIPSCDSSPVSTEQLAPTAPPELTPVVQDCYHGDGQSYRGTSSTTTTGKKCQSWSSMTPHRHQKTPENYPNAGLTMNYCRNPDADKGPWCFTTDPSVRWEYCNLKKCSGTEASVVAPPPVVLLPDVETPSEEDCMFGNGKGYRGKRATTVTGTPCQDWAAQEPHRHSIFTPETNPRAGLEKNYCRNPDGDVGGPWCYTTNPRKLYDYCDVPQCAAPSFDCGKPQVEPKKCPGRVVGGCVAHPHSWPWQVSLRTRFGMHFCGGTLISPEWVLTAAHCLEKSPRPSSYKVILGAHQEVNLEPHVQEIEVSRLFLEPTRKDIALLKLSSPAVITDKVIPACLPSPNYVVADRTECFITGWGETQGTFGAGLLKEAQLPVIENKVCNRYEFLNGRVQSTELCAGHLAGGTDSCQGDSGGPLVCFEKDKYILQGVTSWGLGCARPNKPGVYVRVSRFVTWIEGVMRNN
# T1 sequence (P02671 36-629 limits assumed): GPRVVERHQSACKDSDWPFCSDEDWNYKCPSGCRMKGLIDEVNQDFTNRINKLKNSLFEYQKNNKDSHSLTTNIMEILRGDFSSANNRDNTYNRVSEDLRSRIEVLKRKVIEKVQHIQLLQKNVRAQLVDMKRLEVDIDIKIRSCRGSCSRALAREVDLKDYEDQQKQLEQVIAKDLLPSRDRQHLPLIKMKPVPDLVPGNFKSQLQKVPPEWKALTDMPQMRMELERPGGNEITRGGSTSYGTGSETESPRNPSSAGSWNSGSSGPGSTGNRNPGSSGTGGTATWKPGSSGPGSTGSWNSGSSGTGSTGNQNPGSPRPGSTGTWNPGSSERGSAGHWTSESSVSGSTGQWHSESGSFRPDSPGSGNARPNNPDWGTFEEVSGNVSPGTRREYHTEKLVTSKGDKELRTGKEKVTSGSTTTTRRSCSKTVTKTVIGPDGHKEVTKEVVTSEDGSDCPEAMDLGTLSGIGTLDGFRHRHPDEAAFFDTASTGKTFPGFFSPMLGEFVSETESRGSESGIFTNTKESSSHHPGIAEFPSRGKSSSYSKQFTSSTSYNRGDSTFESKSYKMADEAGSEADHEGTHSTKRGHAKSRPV
# T1 sequence (P02675 45-491 limits assumed): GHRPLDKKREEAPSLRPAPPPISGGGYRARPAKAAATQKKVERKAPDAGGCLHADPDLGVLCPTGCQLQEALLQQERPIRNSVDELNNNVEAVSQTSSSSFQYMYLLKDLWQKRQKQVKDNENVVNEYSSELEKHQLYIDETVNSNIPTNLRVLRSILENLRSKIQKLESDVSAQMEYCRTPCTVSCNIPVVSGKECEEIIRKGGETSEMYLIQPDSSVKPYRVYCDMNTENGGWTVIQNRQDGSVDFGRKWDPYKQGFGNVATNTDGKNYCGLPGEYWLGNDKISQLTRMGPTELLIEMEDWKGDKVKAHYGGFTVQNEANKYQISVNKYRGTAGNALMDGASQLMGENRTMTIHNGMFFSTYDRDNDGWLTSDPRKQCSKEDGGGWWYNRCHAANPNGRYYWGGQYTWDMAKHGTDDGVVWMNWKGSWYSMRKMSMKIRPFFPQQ
# T1 sequence (P02679 27-437 isoform P02679-2 limits assumed): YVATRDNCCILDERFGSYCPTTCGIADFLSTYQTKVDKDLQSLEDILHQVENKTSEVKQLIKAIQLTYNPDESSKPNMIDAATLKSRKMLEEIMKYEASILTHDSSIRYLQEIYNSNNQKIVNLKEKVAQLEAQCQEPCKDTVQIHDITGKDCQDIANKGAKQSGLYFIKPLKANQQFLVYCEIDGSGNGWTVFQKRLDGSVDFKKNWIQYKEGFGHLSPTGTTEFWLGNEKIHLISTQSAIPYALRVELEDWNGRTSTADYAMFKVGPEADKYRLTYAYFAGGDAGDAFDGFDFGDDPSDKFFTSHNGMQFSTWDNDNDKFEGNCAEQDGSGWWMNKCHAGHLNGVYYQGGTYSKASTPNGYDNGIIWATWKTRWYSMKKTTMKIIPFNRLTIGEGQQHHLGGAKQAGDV
molecule,measurement,setting,value
B1,overall percent specific activity of the recovered protein,[1]; 0.01 mg/mL,≥ 100%
same,overall percent specific activity of the recovered protein,[1]; 0.02 mg/mL,≥ 92%
same,overall percent specific activity of the recovered protein,[1]; 0.05 mg/mL,≥ 80%
same,Lytic activity in clot lysis effectiveness test,[1]; diluted down to 0.01 mg/mL in normal saline,lytically active
same,Lytic activity after storage,"[1]; diluted to 0.01, 0.02, and 0.05% mg/mL in 0.9% NaCl IV bags (500 mL), after 24 hours of storage at ambient conditions",lytically active
same,% Specific Activity,[1]; [4],100%
same,Clot lysis (+cent),[1]; [4],0.004 mg/mL
same,Clot lysis (−cent),[1]; [4],0.006 mg/mL
same,% Specific Activity,[1]; [5],125% and 120%
same,Clot lysis (+cent),[1]; [5],0.005 mg/mL and 0.006 mg/mL
same,Clot lysis (−cent),[1]; [5],0.007 mg/mL and 0.008 mg/mL
same,% Specific Activity,[1]; [6],100% and 120%
same,Clot lysis (+cent),[1]; [6],0.005 mg/mL and 0.006 mg/mL
same,Clot lysis (−cent),[1]; [6],0.007 mg/mL
same,% Specific Activity,[1]; [7],92%
same,Clot lysis (+cent),[1]; [7],0.012 mg/mL
same,Clot lysis (−cent),[1]; [7],0.015 mg/mL
same,% Specific Activity,[1]; [8],92%
same,Clot lysis (+cent),[1]; [8],0.012 mg/mL
same,Clot lysis (−cent),[1]; [8],0.015 mg/mL and 0.013 mg/mL
same,% Specific Activity,[1]; [9],100% and 92%
same,Clot lysis (+cent),[1]; [9],0.013 mg/mL and 0.012 mg/mL
same,Clot lysis (−cent),[1]; [9],0.015 mg/mL and 0.016 mg/mL
same,% Specific Activity,[1]; [10],82% and 78%
same,Clot lysis (+cent),[1]; [10],0.037 mg/mL and 0.036 mg/mL
same,Clot lysis (−cent),[1]; [10],0.040 mg/mL and 0.041 mg/mL
same,% Specific Activity,[1]; [11],76% and 82%
same,Clot lysis (+cent),[1]; [11],0.034 mg/mL and 0.037 mg/mL
same,Clot lysis (−cent),[1]; [11],0.039 mg/mL
same,% Specific Activity,[1]; [12],93% and 91%
same,Clot lysis (+cent),[1]; [12],0.040 mg/mL
same,Clot lysis (−cent),[1]; [12],0.043 mg/mL
same,observed pH,[2]; 0.01 mg/mL in NS,6.7-6.8
same,observed pH,[2]; 0.02 mg/mL in NS,6.8-6.9
same,observed pH,[2]; 0.05 mg/mL in NS,7.1-7.2
same,pH,[2]; [4],6.70 and 6.73
same,pH,[2]; [6],6.77 and 6.71
same,pH,[2]; [7],6.93 and 6.83
same,pH,[2]; [9],6.86 and 6.90
same,pH,[2]; [10],7.12 and 7.15
same,pH,[2]; [12],7.10 and 7.07
same,% Change in Conc. (±cent),[3]; [4],57%
same,Conc. (+cent) by RP-HPLC,[3]; [4],4000 ng/mL
same,Conc. (−cent) by RP-HPLC,[3]; [4],7000 ng/mL
same,% Change in Conc. (±cent),[3]; [5],57% and 63%
same,Conc. (+cent) by RP-HPLC,[3]; [5],4000 ng/mL and 5000 ng/mL
same,Conc. (−cent) by RP-HPLC,[3]; [5],7000 ng/mL and 8000 ng/mL
same,% Change in Conc. (±cent),[3]; [6],71%
same,Conc. (+cent) by RP-HPLC,[3]; [6],5000 ng/mL
same,Conc. (−cent) by RP-HPLC,[3]; [6],7000 ng/mL
same,% Change in Conc. (±cent),[3]; [7],76%
same,Conc. (+cent) by RP-HPLC,[3]; [7],13000 ng/mL
same,Conc. (−cent) by RP-HPLC,[3]; [7],17000 ng/mL
same,% Change in Conc. (±cent),[3]; [8],81%
same,Conc. (+cent) by RP-HPLC,[3]; [8],13000 ng/mL
same,Conc. (−cent) by RP-HPLC,[3]; [8],16000 ng/mL
same,% Change in Conc. (±cent),[3]; [9],81%
same,Conc. (+cent) by RP-HPLC,[3]; [9],13000 ng/mL
same,Conc. (−cent) by RP-HPLC,[3]; [9],16000 ng/mL
same,% Change in Conc. (±cent),[3]; [10],94% and 98%
same,Conc. (+cent) by RP-HPLC,[3]; [10],45000 ng/mL and 46000 ng/mL
same,Conc. (−cent) by RP-HPLC,[3]; [10],48000 ng/mL and 47000 ng/mL
same,% Change in Conc. (±cent),[3]; [11],96%
same,Conc. (+cent) by RP-HPLC,[3]; [11],45000 ng/mL
same,Conc. (−cent) by RP-HPLC,[3]; [11],47000 ng/mL
same,% Change in Conc. (±cent),[3]; [12],90% and 96%
same,Conc. (+cent) by RP-HPLC,[3]; [12],43000 ng/mL and 44000 ng/mL
same,Conc. (−cent) by RP-HPLC,[3]; [12],48000 ng/mL and 46000 ng/mL
